Data on one molecule can be found in publication PMC8913300, “Two distinct classes of cochaperones compete for the EEVD motif in heat shock protein 70 to tune its chaperone activities” (The Journal of Biological Chemistry, 2022).

The test system of this experiment is Hsp72–DnaJB4 complex. The experiment can be described thus: Luciferase refolding by Hsp72/DnaJB4 in the presence of TPR cochaperones. The class given is biochemical. The conditions noted are these: 1 μM Hsp72, 100 nM denatured luciferase, 120 nM DnaJB4; CHIP titration or 10 μM TPR protein; 1 h at 37 °C. How it is done:
Experiments were performed as described ([14]). Briefly, Renilla luciferase (Promega) was denatured in 8 M GdnHCl for 2 h at room temperature. Hsp72 (1 μM) and denatured luciferase (100 nM) were diluted into a working concentration in buffer containing an ATP regenerating system (23 mM Hepes, 120 mM KAc, 1.2 mM MgAc, 15 mM DTT, 61 mM creatine phosphate, 35 units/ml creatine kinase, and 5 ng/μl bovine serum albumin, pH 7.4). A titration series of DnaJB4 was added, and the reaction was initiated with the addition of 2.5 mM ATP. For competition assays with DnaJB4, complexes of Hsp72 (1 μM), denatured luciferase (100 nM), and DnaJB4 (120 nM) were incubated with either a titration of CHIP or 10 μM of indicated TPR protein. In all cases, the assay was allowed to incubate for 1 h at 37 °C in white, 96-well flat-bottom plates (Corning 3990). Luminescence was measured using the SteadyGlo luminescence reagent (Promega), and percent refolded luciferase was calculated using a standard curve of 100 to 0 nM native luciferase.

B1: DnaJC7: TPR cochaperone that also contains a J-domain (protein, UniProt Q99615 2-494, looked up)
DnaJ homolog subfamily C …: AAAAECDVVMAATEPELLDDQEAKREAETFKEQGNAYYAKKDYNEAYNYYTKAIDMCPKNASYYGNRAATLMMLGRFREALGDAQQSVRLDDSFVRGHLREGKCHLSLGNAMAACRSFQRALELDHKNAQAQQEFKNANAVMEYEKIAETDFEKRDFRKVVFCMDRALEFAPACHRFKILKAECLAMLGRYPEAQSVASDILRMDSTNADALYVRGLCLYYEDCIEKAVQFFVQALRMAPDHEKACIACRNAKALKAKKEDGNKAFKEGNYKLAYELYTEALGIDPNNIKTNAKLYCNRGTVNSKLRKLDDAIEDCTNAVKLDDTYIKAYLRRAQCYMDTEQYEEAVRDYEKVYQTEKTKEHKQLLKNAQLELKKSKRKDYYKILGVDKNASEDEIKKAYRKRALMHHPDRHSGASAEVQKEEEKKFKEVGEAFTILSDPKKKTRYDSGQDLDEEGMNMGDFDPNNIFKAFFGGPGGFSFEASGPGNFFFQFG
For B1, the “effect on client (luciferase) refolding by Hsp72–DnaJB4” value is recorded as “strongly promoted luciferase refolding”.
